Measured values published in patent EP1870467A1 (UNIVERSITY COLLEGE LONDON, dated 2007).

Target: the molecule itself
Assay: western blot, band at about 120kD read as a homodimer

B1: full length MEPE (phosphatonin) expressed in an insect cell line and excreted into the medium (ligand)
chain: PTFQPQTEKTKQSCVEEQRQEEKNKDNIGFHHLGKRINQELSSKENIVQERKKDLSLSEASENKGSSKSQNYFTNRQRLNKEYSISNKENTHNGLRMSIYPKSTGNKGFEDGDDAISKLHDQEEYGAALIRNNMQHIMGPVTAIKLLGEENKENTPRNVLNIIPASMNYAKAHSKDKKKPQRDSQAQKSPVKSKSTHRIQHNIDYLKHLSKVKKIPSDFEGSGYTDLQERGDNDISPFSGDGQPFKDIPGKGEATGPDLEGKDIQTGFAGPSEAESTHLDTKKPGYNEIPEREENGGNTIGTRDETAKEADAVDVSLVEGSNDIMGSTNFKELPGREGNRVDAGSQNAHQGKVEFHYPPAPSKEKRKEGSSDAAESTNYNEIPKNGKGSTRKGVDHSNRNQATLNEKQRFPSKGKSQGLPIPSRGLDNEIKNEMDSFNGPSHENIITHGRKYHYVPHRQNNSTRNKGMPQGKGSWGRQPHSNRRFSSRRRDDSSESSDSGSSSESDGD
notes: Secreted into insect cell medium; also called full length phosphatonin; Bac-1
B1: binds.
